The experiment addresses Kelch domain of human Keap1 (residues 321-609) (human, UniProt Q14145 321-609). Description: ITC.

The source of these data is paper PMC3725505 (Scientific Reports, 2013).

Ends that are not written are not given here.

Kelch domain of human Keap1 (residues 321-609), sequence (Q14145 321-609): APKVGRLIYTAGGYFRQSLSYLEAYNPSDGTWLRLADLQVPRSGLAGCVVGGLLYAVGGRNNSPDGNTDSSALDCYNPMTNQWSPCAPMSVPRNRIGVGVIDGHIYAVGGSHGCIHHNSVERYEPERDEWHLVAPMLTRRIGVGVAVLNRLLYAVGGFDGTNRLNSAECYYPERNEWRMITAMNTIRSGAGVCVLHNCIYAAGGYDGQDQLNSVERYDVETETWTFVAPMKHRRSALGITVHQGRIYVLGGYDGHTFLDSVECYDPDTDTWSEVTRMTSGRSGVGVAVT

For the molecule SLEEPHSPETGEKVVAGEVN (also: phosphoserine (S286), position in chain not placed) [WTX pS286 peptide (20-mer, S286 phosphorylated)], the dH is -10.8 ± 0.14 kcal/mol.
